The supplement of paper PMC10567573

B1: TSN (parent)
chain: FLAAEQDIREEIRKVVQSLEQTAR
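Note: lentivirally expressed fusions sorted by FACS into six bins by GFP to DsRed ratio, PSI derived from sequencing read proportions per bin multiplied by bin number.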

Variants of: B1
Assay: protein stability index of a GFP-peptide fusion (GPS, HEK-293T) (PSI 1-6); higher = more stable
Conditions: c terminus: a fixed tail appended
In the case of FLAAEQDIREEIRKVVQSLEPTAR, the protein stability index is reported as 2.41.
With FLAAEQDIREEIRKVVQSLENTAR the protein stability index was 1.83.
Variant FLAAEQDIREEIRKVVQSLEGTAR has a protein stability index of 2.08.
FLAAEQDIREEIRKVVQSLEFTAR gave a protein stability index of 1.81.
Work on FLAAEQDIREEIRKVVQSLEYTAR yielded a protein stability index of 1.64.
In the case of FLAAEQDIREEIRKVVQSLECTAR, the protein stability index is reported as 2.01.
For FLAAEQDIREEIRKVVQSLEKTAR, the protein stability index was 1.78.
With FLAAEQDIREEIRKVVQSLEATAR the protein stability index was 2.14.
In the case of FLAAEQDIREEIRKVVQSLELTAR, the protein stability index is reported as 1.91.
For FLAAEQDIREEIRKVVQSLEWTAR, the protein stability index was 1.87.
Work on FLAAEQDIREEIRKVVQSLEVTAR yielded a protein stability index of 1.5.
FLAAEQDIREEIRKVVQSLERTAR gave a protein stability index of 2.15.
Variant FLAAEQDIREEIRKVVQSLETTAR has a protein stability index of 1.92.
Variant FLAAEQDIREEIRKVVQSLEITAR has a protein stability index of 2.27.
FLAAEQDIREEIRKVVQSLEHTAR showed a protein stability index of 1.8.
FLAAEQDIREEIRKVVQSLEETAR gave a protein stability index of 1.9.
Work on FLAAEQDIREEIRKVVQSLESTAR yielded a protein stability index of 1.9.
Variant FLAAEQDIREEIRKVVQSLEDTAR has a protein stability index of 1.78.
Variant FLAAEQDIREEIRKVVQSLEMTAR has a protein stability index of 1.68.
FLAAEQDIREEIRKVVQSAEQTAR gave a protein stability index of 3.72.
For FLAAEQDIREEIRKVVQSIEQTAR, the protein stability index was 2.41.
For FLAAEQDIREEIRKVVQSVEQTAR, the protein stability index was 3.02.
In the case of FLAAEQDIREEIRKVVQSHEQTAR, the protein stability index is reported as 2.96.
For FLAAEQDIREEIRKVVQSSEQTAR, the protein stability index was 3.33.
With FLAAEQDIREEIRKVVQSPEQTAR the protein stability index was 3.9.
FLAAEQDIREEIRKVVQSKEQTAR showed a protein stability index of 3.44.
FLAAEQDIREEIRKVVQSGEQTAR showed a protein stability index of 3.51.
With FLAAEQDIREEIRKVVQSREQTAR the protein stability index was 3.38.
With FLAAEQDIREEIRKVVQSDEQTAR the protein stability index was 3.6.
With FLAAEQDIREEIRKVVQSFEQTAR the protein stability index was 2.14.
Work on FLAAEQDIREEIRKVVQSWEQTAR yielded a protein stability index of 3.12.
Variant FLAAEQDIREEIRKVVQSEEQTAR has a protein stability index of 4.16.
Variant FLAAEQDIREEIRKVVQSYEQTAR has a protein stability index of 3.01.
For FLAAEQDIREEIRKVVQSMEQTAR, the protein stability index was 2.33.
In the case of FLAAEQDIREEIRKVVQSNEQTAR, the protein stability index is reported as 3.8.
With FLAAEQDIREEIRKVVQSTEQTAR the protein stability index was 3.76.
Variant FLAAEQDIREEIRKVVQSQEQTAR has a protein stability index of 3.39.
Variant FLAAEQDIREEIRKVVQSCEQTAR has a protein stability index of 4.16.
In the case of FLAAEQDIREEIRKVVKSLEQTAR, the protein stability index is reported as 2.52.
For FLAAEQDIREEIRKVVVSLEQTAR, the protein stability index was 1.87.
For FLAAEQDIREEIRKVVTSLEQTAR, the protein stability index was 1.84.
FLAAEQDIREEIRKVVLSLEQTAR gave a protein stability index of 2.42.
FLAAEQDIREEIRKVVMSLEQTAR showed a protein stability index of 2.6.
FLAAEQDIREEIRKVVRSLEQTAR gave a protein stability index of 2.02.
FLAAEQDIREEIRKVVISLEQTAR gave a protein stability index of 2.06.
With FLAAEQDIREEIRKVVSSLEQTAR the protein stability index was 2.78.
FLAAEQDIREEIRKVVHSLEQTAR gave a protein stability index of 1.98.
Work on FLAAEQDIREEIRKVVFSLEQTAR yielded a protein stability index of 1.58.
With FLAAEQDIREEIRKVVWSLEQTAR the protein stability index was 1.72.
FLAAEQDIREEIRKVVASLEQTAR showed a protein stability index of 2.47.
In the case of FLAAEQDIREEIRKVVGSLEQTAR, the protein stability index is reported as 1.92.
FLAAEQDIREEIRKVVYSLEQTAR gave a protein stability index of 1.6.
With FLAAEQDIREEIRKVVNSLEQTAR the protein stability index was 2.15.
FLAAEQDIREEIRKVVESLEQTAR showed a protein stability index of 1.77.
FLAAEQDIREEIRKVVDSLEQTAR showed a protein stability index of 1.78.
For FLAAEQDIREEIRKVVPSLEQTAR, the protein stability index was 3.32.
Work on FLAAEQDIREEIRKVVCSLEQTAR yielded a protein stability index of 2.3.
For FLAAEQDIREEIRKHVQSLEQTAR, the protein stability index was 2.8.
FLAAEQDIREEIRKQVQSLEQTAR showed a protein stability index of 3.54.
Work on FLAAEQDIREEIRKFVQSLEQTAR yielded a protein stability index of 2.96.
Variant FLAAEQDIREEIRKIVQSLEQTAR has a protein stability index of 2.19.
Variant FLAAEQDIREEIRKGVQSLEQTAR has a protein stability index of 3.29.
Variant FLAAEQDIREEIRKEVQSLEQTAR has a protein stability index of 4.34.
With FLAAEQDIREEIRKMVQSLEQTAR the protein stability index was 2.17.
FLAAEQDIREEIRKDVQSLEQTAR showed a protein stability index of 3.62.
In the case of FLAAEQDIREEIRKTVQSLEQTAR, the protein stability index is reported as 2.61.
For FLAAEQDIREEIRKWVQSLEQTAR, the protein stability index was 2.4.
In the case of FLAAEQDIREEIRKPVQSLEQTAR, the protein stability index is reported as 3.
For FLAAEQDIREEIRKLVQSLEQTAR, the protein stability index was 2.48.
For FLAAEQDIREEIRKNVQSLEQTAR, the protein stability index was 3.76.
For FLAAEQDIREEIRKSVQSLEQTAR, the protein stability index was 3.07.
Work on FLAAEQDIREEIRKYVQSLEQTAR yielded a protein stability index of 3.44.
Variant FLAAEQDIREEIRKRVQSLEQTAR has a protein stability index of 3.31.
FLAAEQDIREEIRKCVQSLEQTAR showed a protein stability index of 2.56.
With FLAAEQDIREEIRKAVQSLEQTAR the protein stability index was 3.48.
In the case of FLAAEQDIREEIRKKVQSLEQTAR, the protein stability index is reported as 3.37.
FLAAEQDIREEIRKVVQNLEQTAR showed a protein stability index of 2.25.
With FLAAEQDIREEIRKVVQGLEQTAR the protein stability index was 1.7.
FLAAEQDIREEIRKVVQLLEQTAR showed a protein stability index of 2.22.
FLAAEQDIREEIRKVVQVLEQTAR gave a protein stability index of 2.52.
With FLAAEQDIREEIRKVVQQLEQTAR the protein stability index was 2.24.
Variant FLAAEQDIREEIRKVVQRLEQTAR has a protein stability index of 2.27.
In the case of FLAAEQDIREEIRKVVQHLEQTAR, the protein stability index is reported as 1.71.
For FLAAEQDIREEIRKVVQPLEQTAR, the protein stability index was 2.3.
With FLAAEQDIREEIRKVVQWLEQTAR the protein stability index was 1.62.
FLAAEQDIREEIRKVVQTLEQTAR showed a protein stability index of 2.18.
With FLAAEQDIREEIRKVVQKLEQTAR the protein stability index was 2.35.
FLAAEQDIREEIRKVVQYLEQTAR showed a protein stability index of 1.57.
With FLAAEQDIREEIRKVVQDLEQTAR the protein stability index was 2.31.
FLAAEQDIREEIRKVVQILEQTAR gave a protein stability index of 1.92.
For FLAAEQDIREEIRKVVQMLEQTAR, the protein stability index was 2.22.
Work on FLAAEQDIREEIRKVVQELEQTAR yielded a protein stability index of 2.54.
Variant FLAAEQDIREEIRKVVQALEQTAR has a protein stability index of 1.67.
In the case of FLAAEQDIREEIRKVVQFLEQTAR, the protein stability index is reported as 1.39.
